{"source": "patent US10561712B2", "about": "“Treatment of cancer and inhibition of metastasis using hemoglobin beta subunit” (UNIVERSITY OF MARYLAND, BALTIMORE, priority 2014, dated 2020)", "key": {"[1]": {"tested_on": "HLMEC (Human lung microvascular endothelial cells)", "test": "Viability of normal cells, HLMEC", "assay_type": "cell-based", "settings": "normal lung-residing cell line, data not shown", "excerpt": "(§1) The influence of HBB on the viability of the normal lung-residing cell lines HPEC (Human pulmonary endothelial cells) and HLMEC (Human lung microvascular endothelial cells) and on the normal kidney cell line 293T and 293A was examined as well."}, "[2]": {"tested_on": "HPEC (Human pulmonary endothelial cells)", "test": "Viability of normal cells, HPEC", "assay_type": "cell-based", "settings": "normal lung-residing cell line, data not shown", "excerpt": "as §1"}, "[3]": {"tested_on": "MacroNB cells (human neuroblastoma lung macrometastatic variant)", "test": "MTS-based viability assay, MacroNB cells", "assay_type": "cell-based", "settings": "10 μg human HBB, 72 hr, FIG. 3D", "excerpt": "(§2) The human neuroblastoma lung micrometastatic (MicroNB) and macrometastatic (MacroNB) variants were generated using a mouse model for human neuroblastoma metastasis (Nevo et al., 2008) from the parental cell lines MHH-NB11 (Pietsch et al., 1988) and SH-SY5Y (Biedler et al., 1978) as detailed here (Edry Botzer et al., 2011), and were maintained in culture as previously described (Nevo et al., 2008). The MicroNB and MacroNB variants were previously designated DisNB and MetNB, respectively (Edry Botzer et al., 2011). Authentication of MicroNB and MacroNB cells was performed by short tandem repeat analysis of DNA using the Type-it Microsatellite PCR Kit (Qiagen, Valencia, Calif.), for the genes published by the American Type Culture Collection (ATCC) (Manassas, Va.). The parental cell line MHH-NB11 was kindly provided by Dr. T. Pietsch (Department of Neuropathology, University of Bonn Medical Center, Bonn, Germany).\nNeuroblastoma cells were seeded (3×10^4 per well) in a 96-well flat-bottomed tissue culture plate. […] Cell viability under normal conditions (starvation medium containing BSA) or after incubation with the relevant factors was monitored after 72 hr using an XTT (XTT cell proliferation kit; Biological Industries) or MTS-based (CellTiter 96® AQueous One Solution Cell Proliferation Assay; Promega) viability assays according to manufacturer instructions. Cells were also counted using the trypan-blue exclusion assay to verify the results obtained by XTT and MTS-based viability assays.\nCircular dichroism analysis of human hemoglobin (HB), hemoglobin subunit alpha (HBA) and subunit beta (HBB) indicated a helical structure for all three proteins (FIG. 3C). […] Cell viability under normal conditions (starvation medium) or after incubation with human HBB was monitored after an incubation of 72 hr using an MTS-based viability assay (CellTiter 96® AQueous One Solution Cell Proliferation Assay, Promega) according to the manufacturer instructions. […] Significance was evaluated using Student's t-test for each variant incubated with human HBB compared to incubation with control media (con)."}, "MacroNB cells": {"tested_on": "MacroNB cells", "test": "Cell cycle analysis by flow cytometry, MacroNB cells", "assay_type": "cell-based, human", "settings": "HBB (1 μg) for 48 hr", "method": "Neuroblastoma cells (5×10^5) were plated and after 24 hr, cells were incubated for 48 hr with HBB diluted in starvation medium (RPMI 5% BSA) to a concentration of 10 μg/ml. Neuroblastoma cells incubated with starvation medium containing BSA alone served as control. Cells were pelleted, washed and resuspended in 0.5 ml PBSX1, containing 0.05 ml propidium iodide (PI) (P-4170, Sigma) (50 μg/ml), and 0.05 ml Triton X-100 (Sigma-Aldrich). Flow cytometry analysis was performed using Becton Dickinson FACSort and CellQuest software (Becton Dickinson, Mountain View, Calif.).\nThe cells were also subjected to measurement of cellular DNA content and cell cycle analysis using flow cytometry. Incubation with human HBB elevated the amount of MicroNB and MacroNB cells in the sub GO phase, by 18% and 11%, respectively (data not shown)."}, "[4]": {"tested_on": "MicroNB cells (human neuroblastoma lung micrometastatic variant, MHH-NB11)", "test": "MTS-based viability assay, MicroNB cells", "assay_type": "cell-based", "settings": "10 μg human HBB, 72 hr, FIG. 3D", "excerpt": "as §2\n(§3) Neuroblastoma cells were seeded (3×10^4 per well) in a 96-well flat-bottomed tissue culture plate. After an incubation of 24 hr, cells were washed and incubated with the relevant factors (detailed in the following sections) diluted in starvation medium (RPMI-1640 containing 5% bovine serum albumin (BSA); Biological Industries, Kibbutz Beit Haemek, Israel; Sigma-Aldrich). Cell viability under normal conditions (starvation medium containing BSA) or after incubation with the relevant factors was monitored after 72 hr using an XTT (XTT cell proliferation kit; Biological Industries) or MTS-based (CellTiter 96® AQueous One Solution Cell Proliferation Assay; Promega) viability assays according to manufacturer instructions. Cells were also counted using the trypan-blue exclusion assay to verify the results obtained by XTT and MTS-based viability assays.\nCircular dichroism analysis of human hemoglobin (HB), hemoglobin subunit alpha (HBA) and subunit beta (HBB) indicated a helical structure for all three proteins (FIG. 3C). […] Neuroblastoma cells were seeded (3×10^4 per well) in a 96 well flat-bottomed tissue culture plate. After 24 hr of incubation cells were washed and incubated with human HBB dissolved in starvation medium (RPMI 5% BSA) to the indicated concentrations. Cell viability under normal conditions (starvation medium) or after incubation with human HBB was monitored after an incubation of 72 hr using an MTS-based viability assay (CellTiter 96® AQueous One Solution Cell Proliferation Assay, Promega) according to the manufacturer instructions. Data are means of three independent experiments±SD. Significance was evaluated using Student's t-test for each variant incubated with human HBB compared to incubation with control media (con)."}, "[5]": {"tested_on": "normal kidney cell line 293A", "test": "Viability of normal cells, 293A", "assay_type": "cell-based", "settings": "data not shown", "excerpt": "as §1"}, "[6]": {"tested_on": "ERK1/2 phosphorylation in MacroNB cells", "test": "ERK1/2 phosphorylation (western blot), MacroNB cells", "assay_type": "cell-based, human", "settings": "HBB (1 μg) for 48 hr; in reference to total ERK2; FIG. 4A", "method": "Lysates of neuroblastoma cells and of mouse organs were resolved on SDS-PAGE after the addition of Laemmli sample buffer, and transferred onto nitrocellulose membrane. The total amount of protein in the lanes was assessed by Ponceau staining prior to blocking of the membrane. The membrane was blocked at room temperature with 3% BSA (Sigma-Aldrich) diluted in TBS-Tween (TBST) for 1 hr. For detection of the target proteins, membranes were incubated with relevant primary antibodies (see “Antibodies”), then washed 3 times×5 min with TBSTX1 and incubated with suitable HRP-conjugated secondary antibodies (see “Antibodies”). Membranes were washed again 5 times×3 min with TBSTX1. The bands were visualized by chemiluminescence-ECL reactions and autoradiography by exposure to Fuji film. The amount of the relevant protein in the lanes was estimated by densitometry using Scion Image software (Scion, Frederick, Md., USA).\nNeuroblastoma cells (5×10^6) were plated and after 24 hr the growth medium was replaced with starvation medium (RPMI 0.5% FCS) for 24 hr. […] ERK1/2 phosphorylation was calculated in reference to total ERK2 protein, p38 and TAK1 phosphorylation was calculated in reference to total p38 and TAK1, respectively, as measured by densitometry using Scion Image software (Scion). […]"}, "MicroNB cells": {"tested_on": "MicroNB cells", "test": "Trypan blue exclusion assay, MicroNB cells", "assay_type": "cell-based, human", "settings": "incubation with HBB, results not shown", "method": "as §3\nThe HBB-mediated inhibitory activity was dose dependent (results not shown)."}}, "data": [{"substance": "HBB: beta subunit of human hemoglobin, 147 amino acids, SEQ ID NO:2, HPLC-purified from native human hemoglobin", "values": [{"measurement": "influence on the viability of normal cells", "setting": "[1]", "value": "did not influence the viability"}, {"measurement": "influence on the viability of normal cells", "setting": "[2]", "value": "did not influence the viability"}, {"measurement": "decrease in viability of MacroNB cells", "setting": "[3]", "value": 29, "unit": "%"}, {"measurement": "elevation of the amount of MacroNB cells in G0-G1 phase", "setting": "MacroNB cells; FIG. 4B", "value": 23, "unit": "%"}, {"measurement": "elevation of the amount of MacroNB cells in the sub G0 phase", "setting": "MacroNB cells; data not shown", "value": 11, "unit": "%"}, {"measurement": "decrease in viability of MicroNB cells", "setting": "[4]", "value": 52, "unit": "%"}, {"measurement": "influence on the viability of normal cells", "setting": "[5]", "value": "did not influence the viability"}, {"measurement": "ERK phosphorylation in MacroNB cells", "setting": "[6]", "value": "decreased"}, {"measurement": "non-viable MicroNB cells following incubation", "setting": "MicroNB cells", "value": 16, "unit": "%"}]}]}
